{"source": "patent US11376333B2", "about": "“mTG substrates for covalent conjugation of compounds” (COVALAB, priority 2013, dated 2022)", "key": {"[1]": {"molecular_target": "T1, microbial transglutaminase (mTG) (Streptomyces mobaraensis, UniProt P81453)", "T1 construct": "purchased Covalab, France opr 0054", "T1 sequence (P81453 77-407)": "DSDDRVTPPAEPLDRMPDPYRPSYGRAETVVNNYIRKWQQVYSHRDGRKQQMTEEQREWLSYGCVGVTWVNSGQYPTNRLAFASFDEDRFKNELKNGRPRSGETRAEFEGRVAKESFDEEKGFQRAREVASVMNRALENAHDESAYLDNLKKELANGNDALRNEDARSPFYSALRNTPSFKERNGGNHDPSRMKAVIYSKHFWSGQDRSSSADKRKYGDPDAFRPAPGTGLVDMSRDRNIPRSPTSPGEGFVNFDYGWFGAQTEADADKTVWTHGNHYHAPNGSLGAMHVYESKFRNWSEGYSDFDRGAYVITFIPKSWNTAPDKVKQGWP", "assay": "mTG-mediated incorporation of biotin-X-cadaverine into peptides coupled on Covabtest plate", "assay_type": "biochemical", "settings": "15 nmoles peptide coupled to plate, biot-cad 0.1 mg/ml, mTG 10 ng/well", "description": "(§1) The coupling method was previously described by the Applicant (V. Thomas et al, 2004) and also in the corresponding data sheet of CovAbtest-Plate™ which is commercially available from Covalab (Ref #opr0004). Briefly, in separate tubes a solution mixture containing 150 μM of each peptide dissolved in 10 mM phosphate buffer pH5, 5 mM EDAC and 5 mM NHS was incubated for 30 min under gentle shaking. The resulting activated NHS-carboxyl C-terminal moiety of each peptide (15 nmoles) was used to be conjugated in each well of CovAbtest-Plate™ previously deprotonated during 15 min with 150 μl 0.6% sodium bicarbonate per well. The microtiter plate was then incubated during 2 hrs at room temperature and washed extensively with Tris Buffer Saline.\nFor this experiment we used the same procedures described by V Thomas et all (2004) and also in the Covalab's commercialized kit (opr0033). Briefly the Lyophilized transglutaminase was reconstituted in 40 mM tris buffer pH 8 and 50 μl of each mTG at 200 ng/ml and at 40 ng/ml were added in the wells containing 50 μl of biotin-X-cadaverine. The enzymatic mixture was incubated for 15 min at room temperature under gentle shaking. Then the plates were washed 3 times with TBS-Tween20 followed by the addition of 100 μl of diluted HRP labeled streptavidine ( 1/2000 in TBS Tween20, 0.5% BSA) in each well. After 30 min at room temperature and 3 washings in TBS-Tween20, 100 μL of TMB substrate were added and after 5 min the colour development was stopped using 100 μl of 0.5 M sulfuric acid. Absorbances at 450 nm were measured using a microplate reader (Multiskan, Labsystems, Helsinki, Finland).\nTo screen the peptide library (Covalab) and identify the putative new substrates of mTG we used Covabtest-peptide (described in B-I-1) in which the peptides were covalently coupled into the plates and the amine substrate Biotin-cadeverine (biot-cad) was free in solution. In this experiment 15 nmoles of each peptide (table 2) were covalently conjugated to microtiter plate and the incorporation of biot-cad (0.1 mg/ml) catalyzed by mTG (10 ng/well) was determined following the experiment described in B-II-1. Among all the peptides tested only few peptides were recognized by mTG as Gln (Q) donor to incorporate biot-cad as shown in the FIG. 1. The enzymatic activity was different between the peptide substrates. […] When Q is replaced by N (peptide HH12N11) no reactivity of the mTG was observed confirming the specificity of the enzyme to Gln donor. Moreover, if the reactivity of the 4 peptides (HH12Q11, DH6Q7, HG14Q11 and WG10Q7) is compared, it can be observed that the reactivity of the Gln depends on its position in the peptide sequence. In the most reactive peptides Q is located at the C-terminal. […]"}, "[2]": {"molecular_target": "T2, human transglutaminase 2 (hTG2) (Homo sapiens, UniProt P21980)", "T2 construct": "purchased Covalab, France opr 0027", "T2 sequence (P21980 1-687)": "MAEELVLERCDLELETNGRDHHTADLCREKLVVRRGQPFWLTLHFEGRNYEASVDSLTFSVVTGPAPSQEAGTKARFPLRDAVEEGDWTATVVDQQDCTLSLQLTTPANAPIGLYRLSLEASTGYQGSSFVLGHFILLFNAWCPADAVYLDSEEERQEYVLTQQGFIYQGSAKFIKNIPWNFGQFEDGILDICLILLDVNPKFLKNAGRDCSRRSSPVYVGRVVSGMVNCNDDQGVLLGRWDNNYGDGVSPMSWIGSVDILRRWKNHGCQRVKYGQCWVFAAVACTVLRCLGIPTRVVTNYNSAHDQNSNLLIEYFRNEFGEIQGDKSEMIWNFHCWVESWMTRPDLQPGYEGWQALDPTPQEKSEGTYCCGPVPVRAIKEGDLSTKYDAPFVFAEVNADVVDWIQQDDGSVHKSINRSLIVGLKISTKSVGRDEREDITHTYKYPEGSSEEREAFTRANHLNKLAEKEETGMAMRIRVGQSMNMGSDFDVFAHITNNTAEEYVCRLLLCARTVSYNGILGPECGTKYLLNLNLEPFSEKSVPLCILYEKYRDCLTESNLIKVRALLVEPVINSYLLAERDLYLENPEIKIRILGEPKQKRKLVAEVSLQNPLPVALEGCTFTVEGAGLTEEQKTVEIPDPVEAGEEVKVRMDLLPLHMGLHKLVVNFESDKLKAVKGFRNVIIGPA", "assay": "TG2-mediated incorporation of biotin-cadaverine into peptides coupled on Covabtest plate", "assay_type": "biochemical", "settings": "same conditions as for mTG", "description": "as §1\nFor this experiment we used the same procedures described by V Thomas et all (2004) and also in the Covalab's commercialized kit (opr0033). Briefly the Lyophilized transglutaminase was reconstituted in 40 mM tris buffer pH 8 and 50 μl of each mTG at 200 ng/ml and at 40 ng/ml were added in the wells containing 50 μl of biotin-X-cadaverine. The enzymatic mixture was incubated for 15 min at room temperature under gentle shaking. […] Absorbances at 450 nm were measured using a microplate reader (Multiskan, Labsystems, Helsinki, Finland). […]"}}, "data": [{"sequence": "HDLMWPDVYSQH (Peptide HH12Q11)", "values": [{"measurement": "reactivity as Gln donor for mTG incorporation of biot-cad", "setting": "[1]", "value": "good substrate for mTG"}, {"measurement": "reactivity as substrate for TG2 incorporation of biot-cad", "setting": "[2]", "value": "less reactivity with TG2 than mTG"}]}]}
